Test results published in patent US20260000764A1 (CITY OF HOPE, published 2026).
Where a chain is given by its changes, count along the chain named.

Experiments:
[1] = target: T1, Biotinylated recombinant human IL-13Rα1 ectodomain with C-terminal biotin acceptor peptide and hexahistidine … (human, UniProt P78552 22-343, biotin on the biotin acceptor peptide (coexpressed with BirA ligase)); assay: SPR (Biacore T100), biotinylated IL-13Rα1 captured on SA chip, IL-13 C4 flowed; Ka and Kd cells are empty
T1 construct: extracellular domain; also called recombinant IL13Rα1; biotinylated IL13Rα1
T1 sequence: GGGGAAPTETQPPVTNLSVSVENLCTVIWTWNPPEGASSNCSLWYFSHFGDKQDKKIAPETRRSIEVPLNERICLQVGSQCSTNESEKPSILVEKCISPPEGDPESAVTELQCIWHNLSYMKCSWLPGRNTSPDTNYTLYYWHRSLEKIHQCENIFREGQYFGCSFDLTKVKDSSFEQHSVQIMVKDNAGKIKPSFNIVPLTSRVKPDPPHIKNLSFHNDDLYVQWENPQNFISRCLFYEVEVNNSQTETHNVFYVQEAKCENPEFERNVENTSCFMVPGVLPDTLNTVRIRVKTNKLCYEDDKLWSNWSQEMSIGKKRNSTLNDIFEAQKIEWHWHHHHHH
Method: (§1) SPR experiments were conducted on a Biacore T100 instrument using a Biacore SA sensor chip (GE Healthcare). Biotinylated IL-13Rα1/IL-13Rα2 was captured at a low density (50-100 response units (RU)) and kinetics measurements were conducted at 30 μL/min. An unrelated biotinylated protein was immobilized as a reference surface for the SA sensor chip with matching RU to the experimental surface. All measurements were made using 3-fold serial dilutions of IL-13 agonists in the running buffer (1×HBS-P, 0.1% BSA). The IL-13Rα1/IL-13Rα2 bound to the chip surface was regenerated with 7 mM glycine (pH 3.0) and 250 mM NaCl. Kinetic parameters were determined using 120 s to 190 s of IL-13 agonist association time and 20 s to 1200 s dissociation time. All data fitting was performed using the Biacore T100 evaluation software version 2.0 with a 1:1 Langmuir binding model.

[2] = target: T2, Biotinylated recombinant human IL-13Rα2 ectodomain with C-terminal biotin acceptor peptide and hexahistidine … (human, UniProt Q14627 27-343, biotin on the biotin acceptor peptide (coexpressed with BirA ligase)); assay: SPR, IL-13Rα2 immobilized on the chip, IL-13 C4 flowed; panel titled IL-13C4/IL-13Rα2
T2 construct: extracellular domain; also called recombinant IL13Rα2; biotinylated IL13Rα2
T2 sequence: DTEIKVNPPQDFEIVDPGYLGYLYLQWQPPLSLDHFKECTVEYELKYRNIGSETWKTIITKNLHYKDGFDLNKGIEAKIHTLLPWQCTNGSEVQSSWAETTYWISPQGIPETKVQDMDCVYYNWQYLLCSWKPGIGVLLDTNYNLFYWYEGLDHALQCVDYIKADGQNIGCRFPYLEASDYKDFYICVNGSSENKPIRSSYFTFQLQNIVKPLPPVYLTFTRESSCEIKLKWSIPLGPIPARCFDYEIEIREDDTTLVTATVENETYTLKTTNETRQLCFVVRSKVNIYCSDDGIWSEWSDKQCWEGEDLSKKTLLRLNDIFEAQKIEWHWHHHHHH
Source text: (§2) FIG. 2A-2F: IL-13Rα1 and IL-13Rα2 binding affinities of the IL-13 variant. (A-C) Surface plasmon resonance measurements of IL-13, IL-13 D7 and IL-13 C4 for IL-13Rα1. IL-13Rα1 was immobilized on the surface of the chip and the indicated doses of IL-13 or the two IL-13 mutants were flowed. (D-F) Surface plasmon resonance measurements of IL-13,IL-13 D7 and IL-13 C4 for IL-13Rα2. IL-13Rα2 was immobilized on the surface of the chip and the indicated doses of IL-13 or the two IL-13 mutants were flowed.
as §1

[3] = target: T1, Biotinylated recombinant human IL-13Rα1 …; assay: SPR; ratio column of the drawn table, IL13Rα1
Source text: as §2, §1

[4] = target: T2, Biotinylated recombinant human IL-13Rα2 …; assay: SPR; ratio of the affinities for IL13Rα2 and IL13Rα1 (reference: IL13Rα1)
Method: as §1

[5] = target: T2, Biotinylated recombinant human IL-13Rα2 …; assay: SPR, Biacore T100, biotinylated receptor captured on SA chip, cytokine flowed, 1:1 Langmuir fit
Method: as §1

[6] = target: T2, Biotinylated recombinant human IL-13Rα2 …; assay: SPR (Biacore T100), biotinylated IL-13Rα2 captured on SA chip, IL-13 C4 flowed, 1:1 Langmuir fit
Source text: as §2, §1

[7] = target: T1, Biotinylated recombinant human IL-13Rα1 …; assay: SPR, IL-13Rα1 immobilized on the chip, IL-13 C4 flowed; panel titled IL-13C4/IL-13Rα1; Kon and Koff cells empty
Source text: as §2, §1

[8] = target: T2, Biotinylated recombinant human IL-13Rα2 …; assay: SPR, IL-13Rα2 immobilized on the chip, IL-13 D7 flowed; panel titled IL-13D7/IL-13Rα2
Source text: as §2, §1

[9] = target: T2, Biotinylated recombinant human IL-13Rα2 …; assay: SPR (Biacore T100), biotinylated IL-13Rα2 captured on SA chip, IL-13 D7 flowed, 1:1 Langmuir fit
Method: as §1

[10] = target: T1, Biotinylated recombinant human IL-13Rα1 …; assay: SPR (Biacore T100), biotinylated IL-13Rα1 captured on SA chip, IL-13 D7 flowed; Ka and Kd cells are empty
Method: as §1

[11] = target: T1, Biotinylated recombinant human IL-13Rα1 …; assay: SPR, IL-13Rα1 immobilized on the chip, IL-13 D7 flowed; panel titled IL-13D7/IL-13Rα1; Kon and Koff cells empty
Source text: as §2, §1

B1: IL13 C4 variant, soluble recombinant protein with C-terminal hexahistidine tag (ligand)
chain: GPVPPSTAVRELIEELVNITQNQKAPLCNGSMVWSINLTAGMYCAALESLINVSGCSAIEKTQRMLSGFCPHKVSAGQFSSLHVRDTRIEVAQFVKDLLNHLKELFTEGQFNHHHHHH
notes: also called C4 mutein
Kd [1]: 36 µM | koff [2]: 0.000764 s⁻¹ | kon [2]: 1.94e+06 M⁻¹ s⁻¹ | KDwt/KD mut [3]: 8200 | fold stronger affinity for IL13Rα2 relative to IL13Rα1 [4]: 92000 fold | Kd [5]: 0.393 nM | koff [6]: 0.000764 s⁻¹ | kon [6]: 1.94e+06 M⁻¹ s⁻¹ | Kd [7]: 36 µM

B2: IL13 D7 variant, soluble recombinant protein with C-terminal hexahistidine tag (ligand)
chain: B1 chain with V9A, V17F, Q63K, S80P, R85K, D86K, N100I, K103R, E104K, T107K
notes: also called D7 mutein
koff [8]: 5.37e-05 s⁻¹ | kon [8]: 1.77e+07 M⁻¹ s⁻¹ | KDwt/KD mut [3]: 940 | koff [9]: 5.37e-05 s⁻¹ | kon [9]: 1.77e+07 M⁻¹ s⁻¹ | Kd [10]: 4.1 µM | Kd [11]: 4.1 µM | fold stronger affinity for IL13Rα2 relative to IL13Rα1 [4]: 1.4e+06 fold | Kd [5]: 0.003 nM
